Experimental data reported in patent US20130224191A1, “NOTUM PROTEIN MODULATORS AND METHODS OF USE” (priority 2010, published 2013).
Entries after “also recorded” stand apart in the source; their conditions may differ.

Assays:
[1] = molecular target: T1, hNotum-His (His tagged human Notum) (human, UniProt Q6P988 20-496); assay: sandwich ELISA: SC2.D2.2 coated at 2 ug/ml captures Notum-His, detected with biotinylated mouse polyclonal anti-Notum 0.5 ug/ml and streptavidin-HRP, TMB, OD450
T1 construct: also called human Notum-His; NOTUM-StrepHis
T1 sequence: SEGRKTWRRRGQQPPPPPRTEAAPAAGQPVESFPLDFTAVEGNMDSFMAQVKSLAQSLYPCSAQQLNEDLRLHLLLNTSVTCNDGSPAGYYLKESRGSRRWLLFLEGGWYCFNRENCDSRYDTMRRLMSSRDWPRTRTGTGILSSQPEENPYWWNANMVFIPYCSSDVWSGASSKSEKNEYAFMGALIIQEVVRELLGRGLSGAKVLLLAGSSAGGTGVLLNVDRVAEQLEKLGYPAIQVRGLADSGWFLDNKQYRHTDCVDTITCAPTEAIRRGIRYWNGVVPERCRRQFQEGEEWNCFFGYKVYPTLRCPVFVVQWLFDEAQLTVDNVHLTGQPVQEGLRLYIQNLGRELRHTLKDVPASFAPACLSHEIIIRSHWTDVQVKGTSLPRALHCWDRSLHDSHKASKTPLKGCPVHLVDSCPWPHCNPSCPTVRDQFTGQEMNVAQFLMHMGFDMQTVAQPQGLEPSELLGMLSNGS
Method: More specifically, murine SC2.D2.2 was absorbed on standard ELISA plates at 2 μg/ml in a 50 mM sodium carbonate buffer at pH9.6. After washing the plates with PBS containing 0.05% (v/v) Tween-20 (PBST), the plates were blocked in PBS containing 2% (w/v) bovine serum albumin (BSA buffer) for two hours at ambient temperature. The content of the plates was flicked off, and purified recombinant Notum-His at varying concentrations (i.e., to provide the standard curve) or patient samples diluted in BSA buffer were added to the plates for a minimum of two hours at ambient temperature. The plates were washed in PBST before adding Notum-specific mouse polyclonal antibody conjugated to biotin at 0.5 μg/ml in BSA buffer. After incubation for one hour, the plate was washed again with PBST and incubated for 30 minutes with a 1:2000 dilution of Streptavidin conjugated to horse radish peroxidase (Jackson Immuno Research). After washing all plates twice with PBST, 100 μl TMB substrate (Thermo Scientific) was added to the wells and incubated for 30 minutes in the dark. Color reaction was stopped by adding 100 μl/well 2M sulfuric acid. Absorbance at OD 450 nm was read in all wells using a standard plate reader.

[2] = system: macaque Notum-Fc; assay: Neutralization of macaque Notum in 293.TCF assay; format: cell-based
Method: Using the 293.TCF cells, purified SC2.D2.2 and SC2.A106 antibodies were tested for their ability to neutralize murine Notum-His or macaque Notum-Fc activity as follows. 2.5×10^4 293.TCF cells were plated per well of a 96-well tissue culture plate in 50 μL of serum-free medium. After 23 hours of serum starvation, 10 μL of DMEM+0.2% FBS containing the Notum proteins at various concentrations were mixed with 15 μL of purified antibody at various concentrations, and allowed to incubate for 5 minutes at room temperature. The 25 μL antibody/Notum mixture was then added to the 293.TCF cells. After 1 hour, 25 μL of Wnt3A or control L-cell CM were added to each well. Eighteen hours after addition of CM, 100 μL of One-Glo solution (ProMega Corp.) was added to each well. The contents of each well were mixed thoroughly to lyse the cells, 100 μL of lysate transferred to black 96-well plates, and the luminescence read after 5 minutes.

[3] = molecular target: T2, Notum (Homo sapiens, UniProt Q6P988); assay: Bio-layer interferometry on ForteBIO RED; format: binding; settings: 250, 125 and 62.5 nM antigen
T2 sequence (Q6P988 20-496): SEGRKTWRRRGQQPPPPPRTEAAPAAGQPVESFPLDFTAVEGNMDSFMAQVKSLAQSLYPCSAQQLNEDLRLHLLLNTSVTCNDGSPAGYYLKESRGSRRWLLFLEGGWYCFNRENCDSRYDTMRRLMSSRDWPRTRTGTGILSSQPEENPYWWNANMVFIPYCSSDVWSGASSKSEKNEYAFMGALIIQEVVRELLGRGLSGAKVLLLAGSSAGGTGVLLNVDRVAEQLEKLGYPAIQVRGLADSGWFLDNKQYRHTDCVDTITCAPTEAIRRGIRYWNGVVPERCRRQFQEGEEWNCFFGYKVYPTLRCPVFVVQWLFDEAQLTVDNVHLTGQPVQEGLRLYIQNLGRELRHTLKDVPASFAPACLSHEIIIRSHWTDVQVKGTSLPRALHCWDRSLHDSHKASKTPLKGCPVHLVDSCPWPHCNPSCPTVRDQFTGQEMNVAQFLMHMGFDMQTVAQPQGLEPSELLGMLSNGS
Method: Three methods were used to characterize the affinity of humanized SC2.D2.2 relative to its analogous mAb with the murine variable region. First, binding signal was measured for a fixed amount of antibody probed against serial dilutions of antigen in an ELISA format. […] Second, the affinity of murine SC2.D2.2 was measured by Biacore using surface plasmon resonance (SPR) to provide the results set forth in FIG. 32A. Based on a concentration series of 12.5, 6.25, 3.125, 1.5625, 0.78125 nM and using a 1:1 Langmuir binding model, the Kd of the antibody binding to antigen was estimated to be less than 0.1 nM. Long off-rates for this interaction made accurate determination of affinity through kinetics difficult. The murine antibody was then directly compared to the humanized derivative using bio-layer interferometry analysis on a ForteBIO RED (ForteBIO, Inc.) with a concentration series of 250, 125, and 62.5 nM antigen.

[4] = molecular target: T2, Notum; assay: 293.TCF assay with rhWnt3A, standard and preincubation protocol; format: cell-based
Method: In order to determine the kinetics of Notum mediated antagonism of Wnt3A signaling, recombinant Notum alone or in the presence of SC2.D2.2 was preincubated with recombinant human Wnt3A (rhWnt3A) for 2 hours at 37° C., prior to addition of the complexes to 293.TCF cells. This resultant induction of luciferase by the rhWnt3A was compared to that observed using the standard protocol for the 293.TCF assay, in which Notum alone or Notum+SC2.D2.2 was added to the cells for two hours prior to the addition of rhWnt3A. […] Of interest however, is the preincubation of Notum and rhWnt3A prior to addition to the 293.TCF cells. In this case the response of the cells to rhWnt3A is reduced greatly (closed circles FIG. 27B).

B1: SC2.D2.2 (antibody, V domains shown)
VH: DVQLVESGGGLVQPGGSRKISCAASGFTFSSYGMHWVRQAPEKGLEWVAYISSSTVTTYYADTVKGRFTISRDNANNTLFLQMTSLRSEDTAMYYCSRQNWDGGYFDVWGAGTTVTVSS
VL: DIVLTQSLASLAVSLGQRATISCRASKSVSSSGYSYMHWYQQKPGQPPKLLIYLASNLESGVPARFSGSGSGTDFTLNIHPVEEEDAATYYCQHSRALPLTFGAGTKLELKR
notes: also called murine SC2.D2.2
[1]
  EC50 (read off the curve): ~9 ng/mL
[2]
  inhibition of macaque Notum activity: did not inhibit; also recorded: without inhibiting murine or macaque versions of the protein
[3]
  affinity, binding curves: excellent affinity
[4]; Notum complexed with antibody prior to preincubation with rhWnt3A, 2 hours at 37° C.
  effect on response of cells to rhWnt3A: restores the sensitivity of the cells to rhWnt3A
[4]; standard protocol, 10 μg/mL antibody, 250 ng/mL rhWnt3A
  effect on Notum antagonism of rhWnt3A: blocks the ability of Notum to antagonize the rhWnt3A
